Measurements published in US20100260668A1 (published 2010).

The binders below were run against T1, DLL4 (DLL ECD His tag, R&D 1506-D4-050) (UniProt Q9NR61 27-529) (assay: BIACORE (SPR), DVD-Ig against DLL4).
T1 construct: extracellular domain; bought

Row | Binder | Kd [nM] | koff [s⁻¹] | kon [M⁻¹ s⁻¹]
1 | DVD479 (bispecific antibody, human IgG1, kappa, DVD-Ig; N-term; VD DLL4 (AB015), C-term; VD VEGF (AB071); HC linker long, LC linker short; also called DVD-Ig DVD479; DVD479H) heavy: not shown light: DIQMTQSPSSLSASVGDRVTITCRASQDVSTAVAWYQQKPGKAPKLLIYSASFLYSGVPSRFSGSGSGTDFTLTISSLQPEDFATTYYCQQSYTGTVTFGQGTKVEIKRTVAAPDIQMTQSPSSLSASVGDRVTITCRASQVIRRSLAWYQQKPGKAPKLLIYAASNLASGVPSRFSGSGSGTDFTLTISSLQPEDFATYYCQQSNTSPLTFGQGTKVEIKRTVAAPSVFIFPPSDEQLKSGTASVVCLLNNFYPREAKVQWKVDNALQSGNSQESVTEQDSKDSTYSLSSTLTLSKADYEKHKVYACEVTHQGLSSPVTKSFNRGEC | 0.441 | 0.000174 | 395000
2 | DVD043 (bispecific antibody, human IgG1, kappa, DVD-Ig; N-term; VD VEGF (AB014), C-term; VD DLL4 (AB015); HC linker short, LC linker short; also called DVD-Ig DVD043; DVD043H) heavy: not shown light: DIQMTQSPSSLSASVGDRVTITCSASQDISNYLNWYQQKPGKAPKVLIYFTSSLHSGVPSRFSGSGSGTDFTLTISSLQPEDFATYYCQQYSTVPWTFGQGTKVEIKRTVAAPDIQMTQSPSSLSASVGDRVTITCRASQDVSTAVAWYQQKPGKAPKLLIYSASFLYSGVPSRFSGSGSGTDFTLTISSLQPEDFATTYYCQQSYTGTVTFGQGTKVEIKRTVAAPSVFIFPPSDEQLKSGTASVVCLLNNFYPREAKVQWKVDNALQSGNSQESVTEQDSKDSTYSLSSTLTLSKADYEKHKVYACEVTHQGLSSPVTKSFNRGEC | 8.4 | 0.000281 | 33400
3 | DVD476 (bispecific antibody, human IgG1, kappa, DVD-Ig; N-term; VD VEGF (AB014), C-term; VD DLL4 (AB015); HC linker long, LC linker short; also called DVD-Ig DVD476; DVD476H) heavy: not shown light: DIQMTQSPSSLSASVGDRVTITCSASQDISNYLNWYQQKPGKAPKVLIYFTSSLHSGVPSRFSGSGSGTDFTLTISSLQPEDFATYYCQQYSTVPWTFGQGTKVEIKRTVAAPDIQMTQSPSSLSASVGDRVTITCRASQDVSTAVAWYQQKPGKAPKLLIYSASFLYSGVPSRFSGSGSGTDFTLTISSLQPEDFATTYYCQQSYTGTVTFGQGTKVEIKRTVAAPSVFIFPPSDEQLKSGTASVVCLLNNFYPREAKVQWKVDNALQSGNSQESVTEQDSKDSTYSLSSTLTLSKADYEKHKVYACEVTHQGLSSPVTKSFNRGEC | 2.96 | 0.000167 | 56300
4 | DVD512 (bispecific antibody, human IgG1, lambda, L234A L235A, DVD-Ig; N-term; VD VEGF (AB014), C-term; VD DLL4 (AB073); HC linker short, LC linker short; also called DVD-Ig DVD512; DVD512H) heavy: not shown light: DIQMTQSPSSLSASVGDRVTITCSASQDISNYLNWYQQKPGKAPKVLIYFTSSLHSGVPSRFSGSGSGTDFTLTISSLQPEDFATYYCQQYSTVPWTFGQGTKVEIKRTVAAPQAVVTQESALTTSPGETVTLTCRSSTGAVTTSNYANWVQEKPDHLFTGLIGGTNNRAPGVPARFSGSLIGDKAALTITGAQTEDEAIYFCALWYSNHWVFGGGTKLTVLGQPKAAPSVTLFPPSSEELQANKATLVCLISDFYPGAVTVAWKADSSPVKAGVETTTPSKQSNNKYAASSYLSLTPEQWKSHRSYSCQVTHEGSTVEKTVAPTECS | 2.94 | 0.000757 | 258000
5 | DVD488 (bispecific antibody, human IgG1, kappa, DVD-Ig; N-term; VD VEGF (AB014), C-term; VD DLL4 (AB072); HC linker short, LC linker short; also called DVD-Ig DVD488; DVD488H) heavy: not shown light: DIQMTQSPSSLSASVGDRVTITCSASQDISNYLNWYQQKPGKAPKVLIYFTSSLHSGVPSRFSGSGSGTDFTLTISSLQPEDFATYYCQQYSTVPWTFGQGTKVEIKRTVAAPDIQMTQSSSYLSVSLGGRVTITCKASDHINNWLAWYQQKPGNAPRLLISGATSLETGVPSRFSGSGSGKDYTLSITSLQTEDVATYYCQQYWSIPLTFGAGTKLELKRTVAAPSVFIFPPSDEQLKSGTASVVCLLNNFYPREAKVQWKVDNALQSGNSQESVTEQDSKDSTYSLSSTLTLSKADYEKHKVYACEVTHQGLSSPVTKSFNRGEC | 0.418 | 6.62e-05 | 159000

Next, values leading:

Row | Kd [nM] | koff [s⁻¹] | kon [M⁻¹ s⁻¹] | Binder
6 | 3.72 | 0.000454 | 122000 | DVD518 (bispecific antibody, human IgG1, kappa, lambda, DVD-Ig; N-term; VD VEGF (AB014), C-term; VD DLL4 (AB073); HC linker long, LC linker long; also called DVD-Ig DVD518; DVD518H) heavy: not shown light: DIQMTQSPSSLSASVGDRVTITCSASQDISNYLNWYQQKPGKAPKVLIYFTSSLHSGVPSRFSGSGSGTDFTLTISSLQPEDFATYYCQQYSTVPWTFGQGTKVEIKRTVAAPSVFIFPPQAVVTQESALTTSPGETVTLTCRSSTGAVTTSNYANWVQEKPDHLFTGLIGGTNNRAPGVPARFSGSLIGDKAALTITGAQTEDEAIYFCALWYSNHWVFGGGTKLTVLGQPKAAPSVTLFPPSSEELQANKATLVCLISDFYPGAVTVAWKADSSPVKAGVETTTPSKQSNNKYAASSYLSLTPEQWKSHRSYSCQVTHEGSTVEKTVAPTECS
7 | 5.38 | 0.00219 | 407000 | DVD530 (bispecific antibody, human IgG1, kappa, lambda, L234A L235A, DVD-Ig; N-term; VD VEGF (AB014), C-term; VD DLL4 (AB073); HC linker short, LC linker long; also called DVD-Ig DVD530; DVD530H) heavy: not shown light: DIQMTQSPSSLSASVGDRVTITCSASQDISNYLNWYQQKPGKAPKVLIYFTSSLHSGVPSRFSGSGSGTDFTLTISSLQPEDFATYYCQQYSTVPWTFGQGTKVEIKRTVAAPSVFIFPPQAVVTQESALTTSPGETVTLTCRSSTGAVTTSNYANWVQEKPDHLFTGLIGGTNNRAPGVPARFSGSLIGDKAALTITGAQTEDEAIYFCALWYSNHWVFGGGTKLTVLGQPKAAPSVTLFPPSSEELQANKATLVCLISDFYPGAVTVAWKADSSPVKAGVETTTPSKQSNNKYAASSYLSLTPEQWKSHRSYSCQVTHEGSTVEKTVAPTECS
8 | 9.45 | 0.000877 | 92800 | DVD524 (bispecific antibody, human IgG1, lambda, DVD-Ig; N-term; VD VEGF (AB014), C-term; VD DLL4 (AB073); HC linker long, LC linker short; also called DVD-Ig DVD524; DVD524H) heavy: not shown light: DIQMTQSPSSLSASVGDRVTITCSASQDISNYLNWYQQKPGKAPKVLIYFTSSLHSGVPSRFSGSGSGTDFTLTISSLQPEDFATYYCQQYSTVPWTFGQGTKVEIKRTVAAPQAVVTQESALTTSPGETVTLTCRSSTGAVTTSNYANWVQEKPDHLFTGLIGGTNNRAPGVPARFSGSLIGDKAALTITGAQTEDEAIYFCALWYSNHWVFGGGTKLTVLGQPKAAPSVTLFPPSSEELQANKATLVCLISDFYPGAVTVAWKADSSPVKAGVETTTPSKQSNNKYAASSYLSLTPEQWKSHRSYSCQVTHEGSTVEKTVAPTECS
